# Experimental data: patent publication US20260258115A1 (MAPP BIOPHARMACEUTICAL, published 2026)
# B1: ADI-41274 (antibody, V domains shown)
# VH: EVQLVESGGGLVKPGGSLRLSCAASGFSFSSYAMNWVRQAPGKGLQWVSSISAGSSYIDYADSVKGRFTISRDNAENSLFLQMNSLRVEDTAVYYCARVGSYTHGYEFDYWGQGTLVTVSS
# VL: QPVLTQPPSVSGAPGQRVTISCTGSNSNIGAGYDVHWYQQLPGTAPKLLIYASTIRPSGVPDRFSGSKSGTSASLAITGLQAEDEADYYCQSYDRNLSVVFGGGTKVTVL
# B2: ADI-41280 (antibody, V domains shown)
# VH: QVQLVESGPGLVKPSETLALTCTVSGGSLSTYYWSWIRQPPGKGLEWIGYIYYSGTTYYNPSLKSRVTISEDRSKNQFSLKLTSVTAADTAVYYCARHGPKTEFWSAQYYLELWGRGTLVTVSS
# VL: EIVLTQSPGTLSLSPGERATLSCRASQSVSSDYLAWYQQKPGQAPSLLIYGVSTRATGIPDRISGSGSGTDFTLTISRLEPEDFAVYYCHQYGTSPWTFGQGTKVEIK
# B3: ADI-41265 (antibody, V domains shown)
# VH: EVQLVQSGAEVKKPGESLTISCKDSGYSFTSYWIGWVRQVPGKGLEWMGIVYPGDSRYSPSFQGHVTMSADKSINTAYLQWSTLKASDTAMYYCAKVVTYGSAIRWFESWGQGTLVTVSS
# VL: QSVLTQPPSVSAAPGQKVSISCSGSSSNIGNNFVSWYQQVPGTAPKLLIIDNNKRPSGIPDRFSGSKSGTSATLGITGLQTGDEADYYCGTWDSRLSAEVFGGGTKLTVL
# B4: ADI-41264 (antibody, V domains shown)
# VH: EVQLVESGGGLVKPGGSLRLSCAASGFTFSNTWMSWVRQAPGKGLEWVGHIKSKTDGGTTDYAAPVKGRFTISRDDSKSILNLHLNSLKTEDSAVYYCAALPPISGWYYTPGFWGQGTLVTVSS
# VL: SYELTQPPSMSVSPGQTARITCFGDAVPKKYVYWYQQKSGQAPVMVIYDDRRRPSGIPERFSGSSSGARATLTISGAQVEDEADYYCYSTDGSGNPSFGGGTKLTVL
# B5: ADI-41273 (antibody, V domains shown)
# VH: EVQLLESGGDLVRPGGSLRLSCTASGFSFSSSEMNWVRQAPGKGLEWVASINSGGDDIYYADSVKGRFTISRDNAKNSLSLQMDSLRAEDTALYYCARSRSGYSSGWSRFFGNWGQGTLVTVSS
# VL: QSALTQPRSVSGSPGQSVTISCTGTISDIGAYNYVSWYQQHPGKAPKVMIYDVSKRPSGVPDRFSGSKSGFTASLTISGLQAEDEADYYCCSYAGRWVFGGGTKLTVL
# B6: ADI-41275 (antibody, V domains shown)
# VH: EVQLVESGGGLVKPGGSLRLSCAASGFMFSTYSMNWVRQAPGKGLEWVSFITGSSSDKYYAHSVKGRFTISRDNAKRTLYLQLNSLRAEDTAVYYCARFRGLYCDGDCSSRGNTYYNYYGMDVWGQGTTVTVSS
# VL: EIVMTQSPLSLSVIPGEPASISCRSSKSLLHSNGYTYLDWYLQKPGQSPQLLIHLGSNRASGVPDRFSGSGSGTDFTLKISRVEAEDVGVFYCMQALQAPPTFGPGTKVEIK
# B7: ADI-41283 (antibody, V domains shown)
# VH: QVTLKESGPTLVKPTQTLTLTCTFSGFSLSTFGVAVGWIRQPPGKALEWLALIYWDDDKRYSPSLKSRLTITKDISKNQVVLTMTNMDPVDTATYYCAHRLRSLTARGVFDIWGQGTTVTVSS
# VL: DIRLTQSPSSLSASVGDRVTITCRASQSINNFLNWYQQRPGKAPTLLIYSASSLQSGVPSRFSGSGSGTDFTLTISSLQPEDFATYFCQQTDSFPWTFGQGTKVEIK
# B8: ADI-41282 (antibody, V domains shown)
# VH: QVQLVQSGGGVVQPGRSLRLSCAASGFMFTIYSMHWVRQAPGKGLEWVAVISNDGVNKYYSDSVKGRFTISRDNSKNTLYLQMNNLRAEDTAVYYCASDIVVLVTATDYWGQGTLVTVSS
# VL: ETTLTQSPVTLSLSPGERATLSCRTSQSFSSPLLAWYQQKPGQAPRLLIYGASNRATGIPDRFSGSGSGTDFTLTISRLEPVDFAVYYCQQYGSSPYTFGQGTKLEIK
# B9: ADI-41270 (antibody, V domains shown)
# VH: EVQLVESGGGVVQPGQSLRLSCAASGFTFSSFAMHWVRQAPGKGLEWVAVISYDGSNKYYADSVKGRFTISRDNSKNTLSLQVNSLRAEDTAVYYCARVSAEGSMGRFSDFNYWGLGTLVTVSS
# VL: QSALTQPASVSGSPGQSITISCTGTSSDVGSYNLVSWYQQHPGKAPKLMIYEVRKRPSGVSNRFSGSKSGNTASLTISGLQAEDEADYYCCSYAGSDTYVFGTGTKLTVL
# B10: ADI-41277 (antibody, V domains shown)
# VH: QVQLQESGPGLVKPSGTLSLTCAVSGGSITGRNWWSWVRQPPGKELERIGEIYHGGSTEYNPSLKGRVTISVDKSKNQFSLRLNSVTAADTAVYYCARVAHYDSNGYYIGYFDLWGRGTLVTVSS
# VL: EIVLTQSPPSLSASVGDRVTITCRASQSISIYLNWYQQKPGKAPKLLIFAASSLQSGVPLRFSGSGSGTDFTLTISSLQPEDFATYYCHQSYSAPWTFGQGTKVDIK
# B11: ADI-41266 (antibody, V domains shown)
# VH: QVQLQQSGPGLVKPSQTLSLTCAISGDSVSSNSAAWNWIRQSPSRGLEWLGRTYYRSKWYNDYAVSVKSRITINPDTSKNQFSLQLNSVTPEDTAVYYCARDLPQVDYFDGASFYFFDFWGQGTLVTVSS
# VL: QPVLTQPPSVSVAPGQTASITCGGNIIGNKGVHWYQQKPGRAPVLVVYDDSDRPSGIPERFSGSNSGNTATLTISRVEAADEADYYCQVWDTGSHPVVFGGGTKVTVL
# B12: ADI-41279 (antibody, V domains shown)
# VH: QVQLVQSGAEVKKAGETLKISCRGPAHTFTSFWIGWVRQTPGKGLEWMGNIYPGDTDTTYSPSFRGQVTISADKSISTAYLQWNSLKASDTAIYYCATRVRHGYSSSGSFESWGQGTMVTVSS
# VL: QSVVTQPPSVSGAPGQRITISCTGSNSNTGAGYDVHWYQQLPGAAPKLLIFANNNRPSGVPDRFSGSKSGTSASLAITGLQAEDEADYYCQSYDNSLSAYVFGTGTKLTVL
# B13: ADI-41281 (antibody, V domains shown)
# VH: QVQLVQSGAEVKKPGASVKVSCKASGYSFTNHGIHWVRQAPGQRLEWMGWINVANGFTAYSQNLQGRVTFTRDTSASTAYLELTSLRSEDTAVYHCARDESYCSAGYCYLYFDYWGQGTTVTVSS
# VL: DIQVTQSPSSLSASVGDRVTITCRASQNIITYVNWYQQKPGKAPELLIFGASSVQSGVPSRFSGSGSGTDFTLTISSLRPDDFATYYCQQSYSNPRTFGGGTKVEIK
# B14: ADI-41267 (antibody, V domains shown)
# VH: QVQLVQSGPGLVKPSGTLSLTCAVSGGSISTTHWWSWVRQPPGKGLEWIGEIYHSGSTNYNPSLKSRVTISVDKSRSQFSLKLTSVTAADTAVYYCARGDPLCSGGICYSGYFDYWGQGTLVTVSS
# VL: SYVLTQPPSVSVSPGQTATITCSGDKLGDQYACWYQQKSGQSPVLVIYRDNKRPSGIPERFSGSNSGNTATLTISETQAMDEADYYCQAWGSSSVVFGGGTKVTVL
# B15: ADI-41268 (antibody, V domains shown)
# VH: EVQLVESGGGLVKPGGSLRLSCVASGFGFTSYSMNWVRQAPGKGLEWVSSISASSTYIHYADSVKGRFTISRDNARNSLYLQMISLRADDTAVYYCSRDGPTYGSGVHVWGQGTMVTVSS
# VL: QSALIQPVSVSGSPGQSITISCTGTRSDVGGYNYVSWYQQHPGKAPKLMIYEVRNRPSGVSDRFSGSKSGNTASLTISGLQAEDEGDYYCSSYTSSDTLFYVFGSGTKLTVL
# B16: ADI-41271 (antibody, V domains shown)
# VH: QVQLQESGPGLVKPSQTLSLTCAISGDSVSSNNAAWNWIRQSPSRGLEWLGRTYYRSKWYNDYAVSVKSRITINPDTSKNQLSLQLNSVTPEDTAVYYCARAGVRQWLVRGMDAFDIWGQGTMVTVSS
# VL: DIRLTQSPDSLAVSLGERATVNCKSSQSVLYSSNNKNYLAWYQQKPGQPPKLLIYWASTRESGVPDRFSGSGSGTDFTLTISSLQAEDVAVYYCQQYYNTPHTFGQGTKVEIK
# B17: ADI-41258 (antibody, V domains shown)
# VH: QVQLVQSGGGLVQRGGSLRLSCAASGFSFRSYAMSWVRQAPGKGLEWVSSISDSGDNTFYADSVKGRFSISRDNSRDTLYLQMNSLRAEDTAVYYCARGGYCSGGNCFPFDYWGQGTLVTVSS
# VL: SYELMQLPSVSVSPGQTARITCSGDALPKQYGYWYQQKPGQAPVLVIYKDSERPSGIPERFSGSSSGTTVTLTISGVQAEDEADYYCQSADSGGTYVMFGGGTKLTVL
# B18: ADI-41261 (antibody, V domains shown)
# VH: QVQLVQSGAEVKKPGSSVKVSCKASGGTFSSYGISWVRQAPGQGLEWMGGIIPMFGAANYAQKFQGRVTITAETSTSTAFMELSSLRSDDTAVYYCARIRWVPNWGGTATSFYNGMDVWGQGTTVTVSS
# VL: EIVMTQSPGTLSLSPGERATLSCRASQSVSSSYLAWYQQKPGQAPRLLIYGASSRATGIPDRFSGSGSGTDFTLTISRLEPEDFAVYYCQHYGSSLFTFGPGTKVDIK
# B19: ADI-41276 (antibody, V domains shown)
# VH: EVQLVESGGGLVQPGRSLRLSCRASGFTFRNYAMSWVRQAPGKGLEWVGFIRGKGYGGTTEYAASVKGRFTISSDDSRSIAYLQMNSLKTEDTAVYYCTRVREDGVIAVAEYYFDYWGQGTLVTVSS
# VL: not shown
# B20: ADI-41259 (antibody, V domains shown)
# VH: QVQLVESGGRLVKPGGSLRLSCAASGFTFSDFYMSWIRQAPGKGLEWVSYISSSGDDPNYADSVKGRFTISRDNSKNSLYLQMNSLRAEDTAVYYCARDEVGWNNLDYYFGMDVWGQGTTVTVSS
# VL: DIVMTQSPLSLPVTLGQPASISCRSSQSLVHSDGNTYLSWFHQRPGQSPRRLIYKVSNRDSGVPNRFSGGGSGTDFTLKISRVEAEDVGFFYCMQGTHWQKTFGQGTKVEIK
# B21: ADI-41278 (antibody, V domains shown)
# VH: EVQLVESGPALVKPTQTLTLTCTFSGFSLSTKRMGVSWIRQPPGKALEWLARIDWDDDKFYSTSLKTRLTISKDTSKNQVVLTLANMDPVDTATYFCARTTVYASGGYYLYYLDYWGQGTLVTVSS
# VL: DIVMTQTPSSLSASVGDRVTLTCRASQRIASYVNWYHQKPGKAPNLLIYAASNLQSGVPSRFSGSGSGTDFTLTISSLQPEDFATYYCQQSYSTPLTFGQGTKLEIK
# B22: ADI-41263 (antibody, V domains shown)
# VH: QVQLVQSGAEVKKPGASVKVYCKASGYTFTSHYIHWVRQAPGQGLEWMGRMNPSGGSPMYAQKFQERVTMTRDTSTSTAYMELRSLRSEDTAVYYCAMAKFYSFDYWGQGTLVTVSS
# VL: QSVLTQPHSVSESPGKTVTISCTRSSGSIASYFVHWYQQRPGSAPTIVIYEDNQRPSGVPDRFSGSIDSSSNSASLTISGLKTEDEADYYCQSYDSSNWVFGGGTKLTVL
# Target: RSV F on RSV-A2 virus (Respiratory syncytial virus (RSV-A2))
# Assay: cell-based or functional assay
row,Binder,Neutralization IC50 (RSV subtype A)
1,B1,0.109 µg/mL
2,B2,> 25 µg/mL
3,B3,> 25 µg/mL
4,B4,> 25 µg/mL
5,B5,> 25 µg/mL
6,B6,> 25 µg/mL
7,B7,> 25 µg/mL
8,B8,> 25 µg/mL
9,B9,> 25 µg/mL
10,B10,> 25 µg/mL
11,B11,> 25 µg/mL
12,B12,> 25 µg/mL
13,B13,> 25 µg/mL
14,B14,> 25 µg/mL
15,B15,0.177 µg/mL
16,B16,> 25 µg/mL
17,B17,> 25 µg/mL
18,B18,> 25 µg/mL
19,B19,> 25 µg/mL
20,B20,0.02 µg/mL
21,B21,> 25 µg/mL
22,B22,> 25 µg/mL
